# In publication PMC12456131:
# Columns and labels:
# Assay in all cases: co-IP (IP: Strep, western blot bands quantified with ImageJ)
# [1] = target: GP4 of PRRSV HuN4-F112, Strep-tagged (pCAGGS-GP4-Strep); conditions: plasmids cotransfected into HEK-293T cells; parent: est. 0.86; read off a plot
# [2] = target: CD163 receptor, HA-tagged (pCAGGS-CD163-HA) (UniProt Q2VL90); conditions: plasmids cotransfected into HEK-293T cells, read off a plot
# [3] = target: GP2a of PRRSV HuN4-F112, Strep-tagged (pCAGGS-GP2a-Strep); conditions: chain shown with the change; plasmids cotransfected into HEK-293T cells; parent: est. 2.9; read off a plot
molecule,measurement,setting,value
"CD163 receptor, HA-tagged (pCAGGS-CD163-HA) (from UniProt Q2VL90) R561A",response (relative ratio of CD163/GP4),[1],0.64
"CD163 receptor, HA-tagged (pCAGGS-CD163-HA) (from UniProt Q2VL90) R561del",response (relative ratio of CD163/GP4),[1],0.27
"GP2a of PRRSV HuN4-F112, Strep-tagged (pCAGGS-GP2a-Strep) V118I",response (relative ratio of CD163/GP2),[2]; parent: est. 0.18,0.67
"GP2a of PRRSV HuN4-F112, Strep-tagged (pCAGGS-GP2a-Strep) V118del",response (relative ratio of CD163/GP2),[2]; parent: est. 0.61,0.23
"GP4 of PRRSV HuN4-F112, Strep-tagged (pCAGGS-GP4-Strep) N43D",response (relative ratio of CD163/GP4),[2]; parent: est. 0.74,1.4
"GP4 of PRRSV HuN4-F112, Strep-tagged (pCAGGS-GP4-Strep) N43del",response (relative ratio of CD163/GP4),[2]; parent: est. 1.2,0.57
"CD163 receptor, HA-tagged (pCAGGS-CD163-HA), Q2VL90 R561A (protein) KDKELRLTGGENKCSGRVEVKVQEEWGTVCNNGWDMDVVSVVCRQLGCPTAIKATGWANFSAGSGRIWMDHVSCRGNESALWDCKHDGWGKHNCTHQQDAGVTCSDGSDLEMGLVNGGNRCLGRIEVKFQGRWGTVCDDNFNINHASVVCKQLECGSAVSFSGSANFGEGSGPIWFDDLVCNGNESALWNCKHEGWGKHNCDHAEDAGVICLNGADLKLRVVDGVTECSGRLEVKFQGEWGTICDDGWDSDDAAVACKQLGCPTAVTAIGRVNASEGTGHIWLDSVSCHGHESALWQCRHHEWGKHYCNHDEDAGVTCSDGSDLELRLKGGGSHCAGTVEVEIQKLVGKVCDRSWGLKEADVVCRQLGCGSALKTSYQVYSKTKATNTWLFVSSCNGNETSLWDCKNWQWGGLSCDHYDEAKITCSAHRKPRLVGGDIPCSGRVEVQHGDTWGTVCDSDFSLEAASVLCRELQCGTVVSLLGGAHFGEGSGQIWAEEFQCEGHESHLSLCPVAPAPDGTCSHSRDVGVVCSRYTQIRLVNGKTPCEGRVELNILGSWGSLCNSHWDMEDAHVLCQQLKCGVALSIPGGAPFGKGSEQVWRHMFHCTGTEKHMGDCSVTALGASLCSSGQVASVICSGNQSQTLSPCNSSSSDPSSSIISEENGVACIGSGQLRLVDGGGRCAGRVEVYHEGSWGTICDDSWDLNDAHVVCKQLSCGWAINATGSAHFGEGTGPIWLDEINCNGKESHIWQCHSHGWGRHNCRHKEDAGVICSEFMSLRLISENSRETCAGRLEVFYNGAWGSVGRNSMSPATVGVVCRQLGCADRGDISPASSDKTVSRHMWVDNVQCPKGPDTLWQCPSSPWKKRLASPSEETWITCANKIRLQEGNTNCSGRVEIWYGGSWGTVCDDSWDLEDAQVVCRQLGCGSALEAGKEAAFGQGTGPIWLNEVKCKGNETSLWDCPARSWGHSDCGHKEDAAVTCSEIAKSRESLHATGRSSFVALAIFGVILLACLIAFLIWTQKRRQRQRLSVFSGGENSVHQIQYREMNSCLKADETDMLNPSGDHSEVQ",response (relative ratio of CD163/GP2),[3],1.8
"CD163 receptor, HA-tagged (pCAGGS-CD163-HA), Q2VL90 R561del (protein) KDKELRLTGGENKCSGRVEVKVQEEWGTVCNNGWDMDVVSVVCRQLGCPTAIKATGWANFSAGSGRIWMDHVSCRGNESALWDCKHDGWGKHNCTHQQDAGVTCSDGSDLEMGLVNGGNRCLGRIEVKFQGRWGTVCDDNFNINHASVVCKQLECGSAVSFSGSANFGEGSGPIWFDDLVCNGNESALWNCKHEGWGKHNCDHAEDAGVICLNGADLKLRVVDGVTECSGRLEVKFQGEWGTICDDGWDSDDAAVACKQLGCPTAVTAIGRVNASEGTGHIWLDSVSCHGHESALWQCRHHEWGKHYCNHDEDAGVTCSDGSDLELRLKGGGSHCAGTVEVEIQKLVGKVCDRSWGLKEADVVCRQLGCGSALKTSYQVYSKTKATNTWLFVSSCNGNETSLWDCKNWQWGGLSCDHYDEAKITCSAHRKPRLVGGDIPCSGRVEVQHGDTWGTVCDSDFSLEAASVLCRELQCGTVVSLLGGAHFGEGSGQIWAEEFQCEGHESHLSLCPVAPPDGTCSHSRDVGVVCSRYTQIRLVNGKTPCEGRVELNILGSWGSLCNSHWDMEDAHVLCQQLKCGVALSIPGGAPFGKGSEQVWRHMFHCTGTEKHMGDCSVTALGASLCSSGQVASVICSGNQSQTLSPCNSSSSDPSSSIISEENGVACIGSGQLRLVDGGGRCAGRVEVYHEGSWGTICDDSWDLNDAHVVCKQLSCGWAINATGSAHFGEGTGPIWLDEINCNGKESHIWQCHSHGWGRHNCRHKEDAGVICSEFMSLRLISENSRETCAGRLEVFYNGAWGSVGRNSMSPATVGVVCRQLGCADRGDISPASSDKTVSRHMWVDNVQCPKGPDTLWQCPSSPWKKRLASPSEETWITCANKIRLQEGNTNCSGRVEIWYGGSWGTVCDDSWDLEDAQVVCRQLGCGSALEAGKEAAFGQGTGPIWLNEVKCKGNETSLWDCPARSWGHSDCGHKEDAAVTCSEIAKSRESLHATGRSSFVALAIFGVILLACLIAFLIWTQKRRQRQRLSVFSGGENSVHQIQYREMNSCLKADETDMLNPSGDHSEVQ",response (relative ratio of CD163/GP2),[3],1.8
